From US9255256B2, “Expression of functional cytochorome P450 monooxygenase system in enterobacteria” (priority 1996, dated 2016)
Like-named read-outs stand apart in the source and are kept apart here.

Assays:
[1] = target: T1, human P450 reductase fused at its N-terminus to the bacterial pelB leader sequence (bacterial; human) (UniProt P16435); assay: cell-based or functional assay
T1 sequence: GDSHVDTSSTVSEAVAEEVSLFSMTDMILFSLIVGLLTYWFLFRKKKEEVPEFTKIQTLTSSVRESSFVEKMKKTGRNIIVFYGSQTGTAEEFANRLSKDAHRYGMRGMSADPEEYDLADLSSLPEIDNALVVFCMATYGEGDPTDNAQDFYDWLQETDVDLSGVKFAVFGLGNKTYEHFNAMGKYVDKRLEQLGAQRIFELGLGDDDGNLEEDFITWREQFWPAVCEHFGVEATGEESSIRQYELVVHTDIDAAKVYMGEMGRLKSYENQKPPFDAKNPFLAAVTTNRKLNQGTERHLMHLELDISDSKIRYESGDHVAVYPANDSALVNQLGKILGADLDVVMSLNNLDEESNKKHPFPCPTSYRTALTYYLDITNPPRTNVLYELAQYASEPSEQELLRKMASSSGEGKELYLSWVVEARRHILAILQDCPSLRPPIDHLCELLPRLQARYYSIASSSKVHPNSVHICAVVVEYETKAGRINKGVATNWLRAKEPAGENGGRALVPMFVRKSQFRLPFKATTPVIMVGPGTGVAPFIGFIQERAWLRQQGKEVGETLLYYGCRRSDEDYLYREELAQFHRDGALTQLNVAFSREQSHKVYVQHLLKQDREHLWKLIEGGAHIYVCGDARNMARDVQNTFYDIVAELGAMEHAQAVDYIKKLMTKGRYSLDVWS

[2] = target: bacterial flavodoxin/NADPH-flavodoxin reductase system or another bacterial reductase; assay: cell-based or functional assay
CYP3A4 [3] = settings: reconstituted system, Gillam et al (1993); cited from earlier work
CYP3A4 [4] = assay: Testosterone 6β-hydroxylase assay, bacterial membrane fractions; format: biochemical, human; settings: in the presence of cumene hydroperoxide, no reductase
Target sequence in this assay (P08684 19-503 limits assumed): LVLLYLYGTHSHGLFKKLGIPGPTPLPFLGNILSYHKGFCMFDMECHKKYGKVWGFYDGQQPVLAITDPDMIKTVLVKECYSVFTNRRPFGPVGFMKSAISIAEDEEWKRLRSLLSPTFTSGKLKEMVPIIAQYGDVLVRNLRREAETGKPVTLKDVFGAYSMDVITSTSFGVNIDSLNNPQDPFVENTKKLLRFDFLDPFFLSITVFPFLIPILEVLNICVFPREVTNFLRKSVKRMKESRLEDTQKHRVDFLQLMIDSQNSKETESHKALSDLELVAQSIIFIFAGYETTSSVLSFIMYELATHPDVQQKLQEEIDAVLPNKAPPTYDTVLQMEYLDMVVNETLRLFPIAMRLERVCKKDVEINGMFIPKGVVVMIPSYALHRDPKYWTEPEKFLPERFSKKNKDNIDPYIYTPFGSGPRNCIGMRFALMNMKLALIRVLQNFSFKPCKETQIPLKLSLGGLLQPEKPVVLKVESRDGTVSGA
Description: Assays were carried out with cells and membrane fractions. In both cases, approximately 100 pmol P450 was incubated with shaking in TSE containing 30 mM MgCl2. The final testosterone concentration was 0.2 mM. Where membranes were used, an NADPH generating system was is added (final concentration 1 mM NADP, 5 mM glucose-6-phosphate, 1 unit glucose-6-phosphate dehydrogenase). Reactions were carried out at 37° C. for 5 minutes, then stopped by addition of 1 ml ice-cold methanol and placed on ice for 10 minutes. Following centrifugation, supernatants were diluted with an equal volume of ice-cold water, and the testosterone metabolites extracted using Isolute C18 columns (IST Ltd), and eluted in 1 ml methanol. […] The yield of the 6β-hydroxytestosterone was calculated by reference to a standard of known concentration, and this allowed determination of the specific activity of the recombinant CYP3A4 towards testosterone.
Direct determination of the catalytic activity of the expressed proteins was not possible due to the absence of P450 reductase in bacterial membranes. The P450 enzyme activity was therefore determined in the presence of cumene hydroperoxide which serves as an artificial oxygen donor for P450s.

[5] = target: T2, human P450 reductase fused at its N-terminus to the bacterial pelB leader sequence, P16435
T2 chain: T1 sequence

P450 reductase [6] = target: T3, P450 reductase (Homo sapiens, UniProt P16435)
T3 sequence (P16435 with tags, fused parts or gaps): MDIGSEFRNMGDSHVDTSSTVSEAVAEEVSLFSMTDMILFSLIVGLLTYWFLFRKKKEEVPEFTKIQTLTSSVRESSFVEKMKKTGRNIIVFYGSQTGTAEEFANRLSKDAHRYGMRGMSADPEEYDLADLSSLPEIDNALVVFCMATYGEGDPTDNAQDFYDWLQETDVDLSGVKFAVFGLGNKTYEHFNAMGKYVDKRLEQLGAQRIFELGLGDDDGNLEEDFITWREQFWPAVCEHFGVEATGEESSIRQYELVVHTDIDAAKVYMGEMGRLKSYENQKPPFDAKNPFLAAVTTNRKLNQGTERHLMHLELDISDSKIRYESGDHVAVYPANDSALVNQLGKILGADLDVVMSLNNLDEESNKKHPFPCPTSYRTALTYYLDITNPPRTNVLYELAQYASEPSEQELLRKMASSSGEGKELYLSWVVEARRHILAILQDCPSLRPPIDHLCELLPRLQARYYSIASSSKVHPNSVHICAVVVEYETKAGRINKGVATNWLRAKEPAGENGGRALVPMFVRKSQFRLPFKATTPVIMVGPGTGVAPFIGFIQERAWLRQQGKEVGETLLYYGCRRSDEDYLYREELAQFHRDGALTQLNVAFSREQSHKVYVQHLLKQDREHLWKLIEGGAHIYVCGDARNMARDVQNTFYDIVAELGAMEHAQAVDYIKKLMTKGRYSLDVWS
Description: (§1) An equal volume of ice-cold distilled water was then added. The CYP3A4 content was determined using Fe^2—CO vs Fe^2+ difference spectra by adding 50 μl whole cell suspension in 1×TSE to 950 μl 100 mM Tris. Cl (pH 7.4), 10 mM CHAPS, 20% v/v glycerol, 1 mM EDTA and reducing by adding a few grains of sodium dithionite. A baseline of zero absorbance was recorded between 500 and 400 nm, then the sample cuvette was bubbled under a steady stream of CO for about 1 minute. A spectrum was then recorded and the yield of spectrally active CYP3A4/1 culture determined. At this stage, an aliquot of whole cells was withdrawn for metabolism studies. […] The CYP3A4 and reductase content of the membranes was determined. The yield of active reductase was evaluated by a spectrophotometric assay, as follows. To 990 μl 50 μM cytochrome c in 0.3 M potassium phosphate buffer (pH 7.7), 1-10 μg membrane protein was added, and a baseline recorded. 50 μM NADPH was added and ΔA550 nm was recorded over time. To determine the P450 contents of membranes, spectra were obtained as for whole cells.

CYP2D6 [7] = target: T4, CYP2D6 (Homo sapiens, UniProt P10635); format: biochemical
T4 construct: in frame to the 5′-end of the full length P450 cDNA; made in house; host or cells: E. coli JM109, membrane fractions
Description: Assays on bacterial membrane fractions were carried out at 37° C. in 50 mM potassium phosphate buffer, pH 7.4, containing 20 or 50 pmol CYP2D6, 50 μM (±)-bufuralol, and a NADPH regenerating system (see Example 1) in a total volume of 300 μl. For membranes isolated from cells carrying pCW/ompA-CYP2D6 only (ie. no reductase co-expressed), the NADPH regenerating system was replaced by 100 μM cumene hydroperoxide. Reactions were stopped by the addition of 15 μl of 60% perchloric acid and placed on ice for 5-10 min. Precipitated proteins were removed by centrifugation, and then the supernatants were analysed for 1′-hydroxybufuralol by reversed-phase HPLC, with reference to authentic standard. Separation was achieved using a Spherisorb 5 μm ODS-2 column 25 cm×4.6 mm, and a mobile phase of 0.1 M ammonium acetate (pH 5.0) with a linear gradient of acetonitrile (27 to 51% in 12 min). Detection was by fluorescence using excitation and emission wavelengths of 252 and 302 nm, respectively.
For the determination of Michaelis-Menten kinetic parameters, incubations were carried out for 5 min with 20 pmol CYP2D6 and varying concentrations of substrate (0 to 100 μM). Km and νmax were estimated from double-reciprocal plots of initial reaction velocity versus substrate concentration.

CYP2D6 [8] = target: T4, CYP2D6; assay: Bufuralol 1′-hydroxylase assay, whole cells; format: cell-based
Description: Assays on whole cells were carried out at 37° C. in 50 ml conical flasks, and contained 50 pmol CYP2D6, 50 μM (±)-bufuralol and 1×TSE buffer in a total volume of 5 ml. Samples (300 μl) were withdrawn at 0, 2, 5 and 10 min into tubes containing 15 μl of 60% perchloric acid on ice. Analysis then proceeded in an identical manner to the membrane assays (see above).

P450 reductase [9] = assay: Cytochrome c reductase activity of bacterial membrane fractions; settings: membranes, expression from pCW, towards cytochrome c (FIG. 4)
Description: as §1

[10] = target: T1, human P450 reductase fused at its N-terminus to the bacterial pelB leader sequence (bacterial; human); assay: cell-based or functional assay; remark: listed apart in the source

## 17α-CYP3A4 (optimised CYP3A4 expressed from NF14 / pB216) (from UniProt P08684 1-503) (enzyme)
[1]
  nifedipine oxidase turnover, JM109 pB216 whole cells: 15.2 min^-1
  testosterone 6β-hydroxylase turnover, JM109 pB216 whole cells: 17.3 min^-1
[2]
  testosterone 6β-hydroxylase turnover, JM109 NF14 whole cells (CYP3A4 alone): < 0.5 min⁻¹

## bacterially-expressed CYP3A4: reconstituted system containing bacterially-expressed CYP3A4, Gillam et al (1993)
CYP3A4 [3]
  turnover rates, testosterone 6β-hydroxylation: up to 10 nmol 6β-hydroxytestosterone/minute/nmol P450

## ompA-CYP3A4: CYP3A4 fused at its N-terminus to the bacterial ompA leader sequence
CYP3A4 [4]
  turnover number for the 6β-hydroxylation of testosterone: 3.2 min⁻¹

B1: ompA-CYP2D6 (protein)
chain: MGLEALVPLAVIVAIFLLLVDLMHRRQRWAARYPPGPLPLPGLGNLLHVDFQNTPYCFDQLRRRFGDVFSLQLAWTPVVVLNGLAAVREALVTHGEDTADRPPVPITQILGFGPRSQGVFLARYGPAWREQRRFSVSTLRNLGLGKKSLEQWVTEEAACLCAAFANHSGRPFRPNGLLDKAVSNVIASLTCGRRFEYDDPRFLRLLDLAQEGLKEESGFLREVLNAVPVLLHIPALAGKVLRFQKAFLTQLDELLTEHRMTWDPAQPPRDLTEAFLAEMEKAKGNPESSFNDENLRIVVADLFSAGMVTTSTTLAWGLLLMILHPDVQRRVQQEIDDVIGQVRRPEMGDQAHMPYTTAVIHEVQRFGDIVPLGVTHMTSRDIEVQGFRIPKGTTLITNLSSVLKDEAVWEKPFRFHPEHFLDAQGHFVKPEAFLPFSAGRRACLGEPLARMELFLFFTSLLQHFSFSVPTGQPRPSHHGVFAFLVSPSPYELCAVPR
[5]
  CYP2D6-dependent activities on co-expression: couples well with co-expressed reductase, catalysing typical CYP2D6-dependent activities
  Vmax of bufuralol 1'-hydroxylation, membranes co-expressing both: 13.3 min⁻¹
  bufuralol 1'-hydroxylase specific activity: 1.2 nmoles/min/mg membrane protein
  bufuralol 1'-hydroxylation turnover number, intact bacteria: turnover numbers of 4.6 min^-1 and 5.7 min^-1 respectively
  bufuralol 1'-hydroxylation turnover number, membranes: turnover numbers of 4.6 min^-1 and 5.7 min^-1 respectively
P450 reductase [6]
  cytochrome c reductase activity: 530 nmol/min/mg
CYP2D6 [7]
  Km: 11.1 µM
  Vmax, bufuralol 1′-hydroxylation: 13.3 min⁻¹
  specific activity, bufuralol hydroxylation: 1.2 nmoles/min/mg membrane protein
  specific activity, fold higher than the value reported for human liver microsomes: 40 fold
CYP2D6 [8]
  bufuralol 1′-hydroxylase activity, intact E. coli: 1.2 nmoles/min/mg protein
CYP2D6 [8]; co-expressed with pelB-reductase, 50 μM bufuralol, no added NADPH
  turnover number, bufuralol hydroxylation, intact bacteria: 4.6 min⁻¹
CYP2D6 [8]; intact E. coli
  bufuralol 1′-hydroxylase activity, fold higher than average of a panel of human liver microsomes: about 20 fold

B2: pelB-reductase: human P450 reductase fused at its N-terminus to the pelB leader sequence (protein)
chain: T1 sequence
modifications: left off: small tags and cut ends
P450 reductase [9]
  reductase activity compared to the native P450 reductase: almost ten fold higher

B3: 17α-CYP2A6 (protein)
chain: MLASGMLLVALLVCLTVMVLMSVWQQRKSKGKLPPGPTPLPFIGNYLQLNTEQMYNSLMKISERYGPVFTIHLGPRRVVVLCGHDAVREALVDQAEEFSGRGEQATFDWVFKGYGVVFSNGERAKQLRRFSIATLRDFGVGKRGIEERIQEEAGFLIDALRGTGGANIDPTFFLSRTVSNVISSIVFGDRFDYKDKEFLSLLRMMLGIFQFTSTSTGQLYEMFSSVMKHLPGPQQQAFQLLQGLEDFIAKKVEHNQRTLDPNSPRDFIDSFLIRMQEEEKNPNTEFYLKNLVMTTLNLFIGGTETVSTTLRYGFLLLMKHPEVEAKVHEEIDRVIGKNRQPKFEDRAKMPYMEAVIHEIQRFGDVIPMSLARRVKKDTKFRDFFLPKGTEVYPMLGSVLRDPSFFSNPQDFNPQHFLNEKGQFKKSDAFVPFSIGKRNCFGEGLARMELFLFFTTVMQNFRLKSSQSPKDIDVSPKHVGFATIPRNYTMSFLPR
[1]
  coumarin 7-hydroxylase activity, shocked cells (nmol/min/nmol P450): 0.75

B4: ompA-CYP2A6 (enzyme, human)
chain: B3 chain
[10]
  coumarin 7-hydroxylase activity, shocked cells (nmol/min/nmol P450): < 0.02

B5: ompA(+2)-CYP2A6 (enzyme, human)
chain: APMLASGMLLVALLVCLTVMVLMSVWQQRKSKGKLPPGPTPLPFIGNYLQLNTEQMYNSLMKISERYGPVFTIHLGPRRVVVLCGHDAVREALVDQAEEFSGRGEQATFDWVFKGYGVVFSNGERAKQLRRFSIATLRDFGVGKRGIEERIQEEAGFLIDALRGTGGANIDPTFFLSRTVSNVISSIVFGDRFDYKDKEFLSLLRMMLGIFQFTSTSTGQLYEMFSSVMKHLPGPQQQAFQLLQGLEDFIAKKVEHNQRTLDPNSPRDFIDSFLIRMQEEEKNPNTEFYLKNLVMTTLNLFIGGTETVSTTLRYGFLLLMKHPEVEAKVHEEIDRVIGKNRQPKFEDRAKMPYMEAVIHEIQRFGDVIPMSLARRVKKDTKFRDFFLPKGTEVYPMLGSVLRDPSFFSNPQDFNPQHFLNEKGQFKKSDAFVPFSIGKRNCFGEGLARMELFLFFTTVMQNFRLKSSQSPKDIDVSPKHVGFATIPRNYTMSFLPR
[5]
  coumarin 7-hydroxylase activity, membranes: 1
[10]
  coumarin 7-hydroxylase activity, shocked cells (nmol/min/nmol P450): 0.29
